Experimental data reported in the nanobody polyreactivity screen of Harvey et al. (2022).

Assay: yeast display, Sf9 membrane polyspecificity reagent, FACS + sequencing; frameworks hold sequencing errors
Summary of the method: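 In a synthetic yeast display library (Saccharomyces cerevisiae BJ5465), nanobody expression was induced with galactose for 36–48 hours. FACS gates were set low and high (top ~1%) using anti-HA fluorescence for expression and streptavidin fluorescence for binding of the Sf9 membrane reagent. Each polyreactivity label is drawn from the gate of origin.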
In the case of “HVQLVESGGGLVQAGGSLRLSCAASGFIFVFYDMGWYRPAPGKERELVAGITRNDGSTYYADSVKGRFKISRDNAKNTVYLQMNSLKPEDTAVYYCAADRVRRNDKLAYDYWGQGTQVTVSS”, the “polyreactivity (PSR sort gate)” value is reported as “low polyreactivity”.
For “QVQLVESGGGLVQAGGSLRLSCAATGFIFYEYPMGWYRQAPGKERELVASINSDGRTDYADSVKGRFTISRDNAKNTVYLQMNSLKPEDTAVYYCAAALGYYGRHPYDYWGQGTQVTVSS”, the “polyreactivity (PSR sort gate)” value was “low polyreactivity”.
In the case of “QVQLVESGGGLVQAGGSLRLSCAASGFTFTSYTMGWYRQAPGKERELVAVISWSGGGTYYADSVKGRFTISRDNAKNTVYLQMNSLKPEDTAVYYCNKAPTNLFGGRYDYWGQGTQVTVSS”, the “polyreactivity (PSR sort gate)” value is reported as “low polyreactivity”.
For “QVQLVESGGGLVQAGGSLRLSCAASGRNFKHYAMGWYRQAPGKERELVAAISYSGGSPKYADSVKGRFTISRYNAMNTVYLQMNSLKPEDTAVYYCAARFFTPFRFSYDYWGQGTQVTVSS”, the “polyreactivity (PSR sort gate)” value was “high polyreactivity”.
For “QVQLVESGGGLVQAGGSLRLSCAASGIIFYWYAMGWYRQAPGKERELVAAISASGASTYYADSVKGRFTISRDNAKNTVYLQMNSLKPEDTAVYYCAAEHPWSRYDYWGQGTQVTVSS”, the “polyreactivity (PSR sort gate)” value was “high polyreactivity”.
With “QVQVVQSGGGLVQAGGSLSLSCAASGNTFYGYAMGWYRQAPGNESEFVASITLSGDSTYYADSVKGRFTISRDNAQNTVYLQMNSLKPEDTAVYYCAGVYTYPLGYYHYTYDYWGQGTQVTVSS” the “polyreactivity (PSR sort gate)” value was “low polyreactivity”.
For “QVQLVESGGGLVQAGGSLRLSCAASGSNFEYYTMGWYRQAPGKEREFVAAITFTGDSTYYADSVKGRFTSSRDNAKNTVYLQMNSLTPEDTAVYYCNDDSDTYDGEYDYWGQGTQVTVSS”, the “polyreactivity (PSR sort gate)” value was “low polyreactivity”.
With “QVQLVESVGGLVQAGGSLRLSCAASGLNFSYYAMGWYRQAPGKERELVAAIDWISGSTYYADSVKGRFTISRDNAKNTVYLQMNSLKPEDTAVYYCAAYGSFWYAGFGYWGQGTQVTVSS” the “polyreactivity (PSR sort gate)” value was “low polyreactivity”.
With “QVQLVESGGGLVQAGGSLRLSCAASGSIFNRYTMGWYRQAPGKERELVAAISKRGGSTYYADSVKGRFTISRDNAKNTVYLQMNSLKPEDPAVYYCAAAGYHSGKGGGYWGQGTQVTVSS” the “polyreactivity (PSR sort gate)” value was “high polyreactivity”.
In the case of “QVQLVESGGGLVQAGGSLRLSCAASGRTSRHYAMGWYRQAPGKERELVAAISRSGGSTYYADSVKGRFTISRDNAKNTFYLQMNILKPDDSAVYYCNKDLKYYTSTYDYWGQGTQVTVSS”, the “polyreactivity (PSR sort gate)” value is reported as “high polyreactivity”.
With “QVQLVESGGGLVQAGGSLRLSCAASGLTFGDYVMGWYRPAPGKERELVATITSDGGTTYADSVKGRFTISRDNAKNTVYLQMNSLKPEDTAVYYCNADAVVDNYVGFSAAGYDYWGQGTQVTVSS” the “polyreactivity (PSR sort gate)” value was “low polyreactivity”.
For “QFQLVESGGGLVQAGGSLRLSCAASGITFGDNAMGWYRQAPGKERELVAAISWSGDRTFYADSVKGRFTISRDNAKNTVYLQMNSLKPEDTAVYYCNAEIGWHNEGRLSTYDYWGQGTQVTVSS”, the “polyreactivity (PSR sort gate)” value was “low polyreactivity”.
With “QVQLVESGGGLVQAGGSLRLSCAASGFTFGDYAMGWYRQAPGKERELVAAISWSGGRTSYADSVKGRFTISRDNAKNTVYLQMNSLKPEDTAVYYCAARYRYAYTSFPFYYWGQGTQVTVSS” the “polyreactivity (PSR sort gate)” value was “high polyreactivity”.
For “QVQRVESGGGLVQAGGSLRLSCAASGSIFASNAMGWYRQAPGKERELVADISGTTGSTYYADSVKGRFTISRDNAKNTVYLQMNSLKPEDTAVYYCAADLVWVSTSYYYWGQGTQVTVSS”, the “polyreactivity (PSR sort gate)” value was “low polyreactivity”.
For “HVQLVESGGGLVQAGGSLRLSCAASGRSFYKYAMGWYRQAPGKERELVAAISLRGARTYYADSVKGRFTISRDNATNTVYLQMHSLKPEETAVYYCAADNYYVRYAYNKSYSWGQGTQVTGSS”, the “polyreactivity (PSR sort gate)” value was “low polyreactivity”.
In the case of “QVQLVESGGGLVQAGGSLRLSCAASGSLFNLYAMGWYIQAPGKERELVAAISWSGGRTFYADSVKGRFTISRDNAKNTVFLQMNSLKPEDTAVYDCAARSSRTTRQGYDYWGQGTQVNVSS”, the “polyreactivity (PSR sort gate)” value is reported as “high polyreactivity”.
With “QVQLVESGGGLVQAGGSLRLSCAASGSIFHIYAMGWYRQAPGKERELVAAISSGGRTNYADSVKGRFTISRDNAKNTVYLQMNSLKPEDTEVYYCAADWIYLPTRNYRVRVDYWGQGTQVTVSS” the “polyreactivity (PSR sort gate)” value was “high polyreactivity”.
With “QVQLVESGGGLVQAGGSLRLSCAASGSTFSQNAMGWYRQAPGKERELVAVISSSGGRTNYADSVKGRFTISRDNAKNTVYLQMNSLKPEDTSVYYCAKRLRVLYYYWGQGTQVTVSS” the “polyreactivity (PSR sort gate)” value was “high polyreactivity”.
With “QVLLVESGGGLVQAGGSLRLSCAASGFIFYLNGMGWYRQAPGKERELVAAISGRGGRTYYADSVKGRFTISRDNAKNTVYLQMNSLIPEDTAVYYCAAQYVPSRYGYWGQGTQVTVSS” the “polyreactivity (PSR sort gate)” value was “high polyreactivity”.
For “QVQLVESGGGLVQAGGSLRLSCAASGRTFYVYTMGWYRQAPGKERELVAAISSGGTTNYADSVKGRFTISRDNAKNTVYLQMNSLKPEDTAVYYCATERGYRYRGPLRVNYDYWGQGTQVTVSS”, the “polyreactivity (PSR sort gate)” value was “low polyreactivity”.
In the case of “QVQLVESGGGLVQAGCSLRLICAASGSIFDEYAMGWYRKAPGKERELVAAITSNGGSTYADSVKGRFTISRDNAKNTVYLQMNSLKPEDTAVYYCAADYFVYWYYGYGYWGQGTQVTVSS”, the “polyreactivity (PSR sort gate)” value is reported as “low polyreactivity”.
For “QVQLEESGGGLVQAGGSLRLSCAASGIIFTVYAMGWYRQATGTERELVAAITSSGGRTYYADSVKGRFTISRDNAKNTVYLQMNSLKPEDTAVYYCAARLPGYVRKYDYWGQGTQVTVSS”, the “polyreactivity (PSR sort gate)” value was “high polyreactivity”.
In the case of “QVQLVESGGGLVQAGGSLRLSCAASGSIFGFYAMGWSRQAPGKERELVAAITSGARTTYADSVKGRFTISRDNAKNTVYLQMNSLKPEDTAVYYSNADTGLGSLDFDKRDYWGQGTQVTVSS”, the “polyreactivity (PSR sort gate)” value is reported as “low polyreactivity”.
With “QVQLVETGGGLVQAGGSLRLSCAASGYNLNSNAMGWYRQAPGKEREFVASITESGGTTYYADSVKGRFTISRDNAKNTVYLQMNSLKPEDTAVYYCAADLVDWWYSSDLYDYWGQGTQVTVSS” the “polyreactivity (PSR sort gate)” value was “high polyreactivity”.
For “QVQLVESGGGLVQAAGSLRLSCAASGSIFNRSTMGWSRQAPGKERELVAGISRGGTTYYADSVKGRFTISRDNAKNTVYLQMNSLKPEDTAVFYCAADYGLLYGQLWGYGYWGQGTQVTVSS”, the “polyreactivity (PSR sort gate)” value was “high polyreactivity”.
With “QVQLVESGGGLVQAGGSLRLSCAASGSTFLTYAMGWYRQAPGKERELVAGISYSTGSTYYADSVKGRFTISRDNAKNTVYLQMHSLKPEDTAVYYCAADEWDGLRYYYYFNYEYWGQGTQVTVSS” the “polyreactivity (PSR sort gate)” value was “low polyreactivity”.
With “QVQLVESGGGLVQAGGSLRLSCSASGSIFPFNAMGWYRQAPGKERELVAAIRWSDGRTYYADSVKGRFTISRDNAKNTVYLQMNSLKPEDTAVYYCAAKSYWGQGTQVTVSS” the “polyreactivity (PSR sort gate)” value was “high polyreactivity”.
In the case of “QVQLVESGGGLVQAGGSLRLSCAASGSTFYYNAMGWYRQAPGKERELVAAITFTGGSTYADSVKGRFTISRDNAKNTVYLQMNSLKPEDTAVYYCAATIQGHDYLGTGYDYWGQGTQVTVSS”, the “polyreactivity (PSR sort gate)” value is reported as “low polyreactivity”.
In the case of “QVQLVESGGCLVQAGGSLRLSCAPSGLTMHYYAMGWYRQAPATERELVAAITYSCGSTYYADSVKGRFTISLDNAKNTVYLQMNILKAEDTAVYYCAADTFPTTSEVDYWGQGTQVTVSS”, the “polyreactivity (PSR sort gate)” value is reported as “low polyreactivity”.
For “QVQLVESVGGLVQAGGSLRLSCASSGNIFGAYAMGWYRQAPGKERELVAAIDSGSTNYADSVKGRFTISRDNAKNTVSLQMNSLKPEDTAVYYCNTKDQDVKVHHTSNTDDYWGQGTQVTVSS”, the “polyreactivity (PSR sort gate)” value was “low polyreactivity”.
In the case of “QLQLVESGRGLVQAGGSLRLSCAASGFTFRTYAKGWYRQAPGKERELVAAITVSGGTYYADSVKGRFTISRDNAKNTVYLQMNSLKPEDTAVYYCTAKRFRTGFDYWGQGTQVTVSS”, the “polyreactivity (PSR sort gate)” value is reported as “low polyreactivity”.
In the case of “QVQLVESGGGLVQAGGSLRLSCAASGYIVTSYTMGWYIQAPGKERELVAAISASDGSTYADSVKGRFTISRDNAKNTVYLQMNSLKPEDTAVYYCNKAAYGGHRTSEQVGWVYLYDYWGQGTQVTVSS”, the “polyreactivity (PSR sort gate)” value is reported as “low polyreactivity”.
For “QVQLVESGLGIVQAGGSLRVSCAASGSTISNYAMGWYRHAPGKERELVAAITSGGTTNYADSVKGRFTISRDNAKNTVYFQMNSLIPEDTAVYYCAKRYSYHVPTHLWVEYYYWGQGTQVTVSS”, the “polyreactivity (PSR sort gate)” value was “low polyreactivity”.
For “QVQLVESGGGLVQAGGSLRLSCAASGRIYNSYAMGWYRQAPGKERELVASTNYADSVKGRFTISRDNAKNTVYLQMNSLKPEDSAVYYCARVDVGWQGGEVLFGRFGYWGQGTQVTVSS”, the “polyreactivity (PSR sort gate)” value was “low polyreactivity”.
In the case of “QVQLVESGGGLVQAGGSLRLSCAASGGTFYNYAMGWYRQAPGKERELVAAISTSGTSTYYADSVKGRFTISRDNAKNTVYLQMNSLKPEDTAVYYCAARGLRVSSRGYYWGQGTQVTVSS”, the “polyreactivity (PSR sort gate)” value is reported as “high polyreactivity”.
For “QVQLVESGGGLVQAGGSLRVSCAASGSIFSIYAMGWYRQAPGKERELVASITRSSGRTYYADSVKGRFTISRDNAKKTVYLQMNSLKPEDTAVYYCAKDYIPLALDADDYWGQGTQVSVSS”, the “polyreactivity (PSR sort gate)” value was “low polyreactivity”.
In the case of “QVQLVESGGGLVQAGGSLRLICAASGFTIGANTMGWYREAPGKERELVAAITSGGRTYYADSVKGRFTISRDNAKNTVYLQMNSLKPEDTAVYYCAAGRPRTIFQEYGSWGQGTQVTVSS”, the “polyreactivity (PSR sort gate)” value is reported as “high polyreactivity”.
For “QVQLVESGGGLVQAGGSLRLSCAASGSIFVTYAMGLYRQAPGKERELVAAITSSDRTKYADSVKGRFTISRDNAKNTVYVQMHSLKPEDTAVYYGAKVVRTRYYGGYDYWGQVTQVTVSS”, the “polyreactivity (PSR sort gate)” value was “high polyreactivity”.
With “QVQLVESGGGLVQAGGSLRLSCAASGSTFWAYVMGWYRQAPGKERELVAAISKSGVRTHYADSVKGRFTISRDNAKNTVYLQMNSLKPEDNAVYYCAAGGVGNLDDYWGQGTQVTVSS” the “polyreactivity (PSR sort gate)” value was “high polyreactivity”.
With “QFQLEESGGGLVQAGGSLRLSCAASGSTFWYNAMGWYRQAPGKERELVAAISRSGATTYYADSVKGRFTISRDNAKNTVYLQMNSLKPEDTAVYYCNAVISPSSYVRNSDYWGQGTQVTVSS” the “polyreactivity (PSR sort gate)” value was “low polyreactivity”.
For “QVQLVESGGGLVQAGGSLRLSCAASGYTFEDNAMGWYRQAPRKESELVAAIDWSGDSTYYADSVKGRFTISRDNAKNTVYLQMNSLKPEDTAVYYCAADYTTWTDMDYWGQGTQVTVSS”, the “polyreactivity (PSR sort gate)” value was “low polyreactivity”.
In the case of “QVQHVETGGGLVQAGGSLRLSCAASGFLFYFNDKGWYRQAPGKERELVASITSGASTNYADSVKGRFTISRDNAKNTVYLQMNSLKPEDTAVYYCAAAYFWLYPYVEYDYWGQGTQVTVSS”, the “polyreactivity (PSR sort gate)” value is reported as “low polyreactivity”.
With “QVQLVESGGGLVQAGGSLRLSCAASGRTFKYYAMGWYRQAPGKERELVAAISLSSGRTYYADSVKGRFTISRDNAKNTVYLQMNSLKPEDTAVYYCAAERYASGLVYGYDYWGQGTQVTVSS” the “polyreactivity (PSR sort gate)” value was “high polyreactivity”.
